This experiment deals with N-terminal alkaline phosphatase-tagged RBP (AP-RBP fusion protein) (human, UniProt P02753 19-201). Description: AP-RBP binding to live COS-1 cells transfected with bovine STRA6, AP activity read-out.

Procedure: The cells were then washed twice with PBS⁺ and fixed in fresh 2% formaldehyde in PBS⁺ at room temperature for 10 min. After 3 more PBS washes, the cells were heated in PBS for 1 h at 65° C. […] The reaction was stopped by washing cells twice with PBS containing 1 mM CaCl₂. The cells were then lysed in 200 μl of cold PBS containing 1% Triton X-100 and protease inhibitors per well. The cell lysates were centrifuged at 3,000 g at 4° C. for 5 min. The supernatants were removed and heated at 65° C. for 1 h. Twenty microliters of the heated lysate were mixed with 200 μl of pNPP (Sigma) and incubated at 37° C. for 1 h for the AP color reaction. The reactions were stopped by adding 50 μl 3 M NaOH and were transferred to a 96-well plate for reading in a microplate reader at 405 nm.

B1: bovine STRA6 (wild-type) (receptor)
chain: MSTQAAGNQTSSGATDSEDSYDSWYIDEPQGGQELQPEGLVPSCQPNVPPSLYHTCLAVLSILVLFLLAMLVRRRQLWPRCGHGRPGLPSPVDFLTGDRPRTVPAAVFMVLFSSLCLLLPTEDPLPFLSLASPPGRDGEAETSRGPWKILALLYYPALYYPLAACATVRHGAAHLLGSLLSWAHLGVQVWQRAECPESPKIYKYYSLLASLPLLLGLGFLSLWYPVQLVRSFGHGAATGSKGLQSSYSEEYLRTLLCQKKLKSSSHTCKRGFASQAWMYFRHSVYIPQQGFRLPLKLVLSVTLTGTAIYQVALLLLVGVVPTIQKVRAGITTDVSYLLAGFGIVLSEDRQEVVELVKHHLWALEVCYISALVLSCLLTFLMLVHSLVTHRTNLRALHRGGALDIGPLTQSPRPSRQAIFCWMSFTAYQTAFTCLGLLVQQILFFLGTLTLAFLVFMPMLHGRNLLLLHYLKSSWPFWLTLALAVTLQNAAAHWAFLDTHHGRPGLTNRRALYAATFLLFPVNVLVGTMVAAWRVLLSALYNAVHLGRMDLSLLPLRAATLDPGYHTYCNFLRMEASQSHPAATAFCALLLRTQRPKPRATPQDGLRLGEEEEGIQLLQTKDLVAKGAGPRARQGRARWGLAYTLLHNPALQAFRKTALPGARPNGAQP
notes: also called RBP receptor; WT
As to B1, the dissociation constant (Kd) is 59 nM.

Values taken from patent US20090048196A1 (University of California, published 2009).
